According to US20220177587A1, “METHODS AND USES OF VARIANT CD80 FUSION PROTEINS AND RELATED CONSTRUCTS” (Alpine Immune Sciences, Inc., priority 2018, published 2022):
Where “and” joins values, the source holds several entries; their conditions need not be identical. Equal values may be shown once.

tested on: human pan T cells; assay: Anti-CD3 coimmobilization assay, IFN-gamma; assay type: cell-based; details: Table E34; culture supernatant, 3 days
Procedure: Costimulatory bioactivity of CD80 fusion variants was determined in anti-CD3 coimmobilization assays. 1 nM or 4 nM mouse anti-human CD3 (OKT3, Biolegends, USA) was diluted in PBS with 1 nM to 80 nM rCD80.Fc variant proteins. This mixture was added to tissue culture treated flat bottom 96-well plates (Corning, USA) overnight to facilitate adherence of the stimulatory proteins to the wells of the plate. The next day, unbound protein was washed off the plates and 100,000 purified human pan T cells (BenTech Bio, US) or human T cell clone BC3 (Astarte Biologics, USA) were added to each well in a final volume of 200 μl of Ex-Vivo 15 media (Lonza, Switzerland). Cells were cultured 3 days before harvesting culture supernatants and measuring human IFN-gamma levels with Duoset ELISA kit (R&D Systems, USA) as described above.

| Molecule | Anti-CD3 IFN-gamma Coimmobilization Assay |
| --- | --- |
| I118T, C128R (protein, CD80 v118 ECD) VIHVTKEVKEVATLSCGHNVSVEELAQTRIYWQKEKKMVLTMMSGDMNIWPEYKNRTIFDITNNLSIVILALRPSDEGTYECVVLKYEKDAFKREHLAEVTLSVKADFPTPSISDFETPTSNIRRIIRSTSGGFPEPHLSWLENGEELNAINTTVSQDPETELYAVSSKLDFNMTTNHSFMCLIKYGHLRVNQTFNWNTTKQEHFPDN | 122 pg/mL |
| S129P, T154A (protein) VIHVTKEVKEVATLSCGHNVSVEELAQTRIYWQKEKKMVLTMMSGDMNIWPEYKNRTIFDITNNLSIVILALRPSDEGTYECVVLKYEKDAFKREHLAEVTLSVKADFPTPSISDFEIPTSNIRRIICPTSGGFPEPHLSWLENGEELNAINTAVSQDPETELYAVSSKLDFNMTTNHSFMCLIKYGHLRVNQTFNWNTTKQEHFPDN | 156 pg/mL |
| Q27R, R29C, M42T, S129P, E160G (protein, CD80 v119 ECD) VIHVTKEVKEVATLSCGHNVSVEELARTCIYWQKEKKMVLTTMSGDMNIWPEYKNRTIFDITNNLSIVILALRPSDEGTYECVVLKYEKDAFKREHLAEVTLSVKADFPTPSISDFEIPTSNIRRIICPTSGGFPEPHLSWLENGEELNAINTTVSQDPGTELYAVSSKLDFNMTTNHSFMCLIKYGHLRVNQTFNWNTTKQEHFPDN | 139 pg/mL |
| R29D, Y31L, Q33H, K36G, M38I, T41A, M43R, M47T, E81V, L85R, K89N, A91T, F92P, K93V, R94L, V22A, I118T, T130A, N149S (protein) VIHVTKEVKEVATLSCGHNVSAEELAQTDILWHKEGKIVLAMRSGDTNIWPEYKNRTIFDITNNLSIVILALRPSDEGTYVCVVRKYENDTPVLEHLAEVTLSVKADFPTPSISDFETPTSNIRRIICSASGGFPEPHLSWLENGEELSAINTTVSQDPETELYAVSSKLDFNMTTNHSFMCLIKYGHLRVNQTFNWNTTKQEHFPDN | 124 pg/mL |
| R29D, Y31L, Q33H, K36G, M38I, T41A, M43R, M47T, E81V, L85R, K89N, A91T, F92P, K93V, R94L, I118T, T130A, N149S, K169I (protein) VIHVTKEVKEVATLSCGHNVSVEELAQTDILWHKEGKIVLAMRSGDTNIWPEYKNRTIFDITNNLSIVILALRPSDEGTYVCVVRKYENDTPVLEHLAEVTLSVKADFPTPSISDFETPTSNIRRIICSASGGFPEPHLSWLENGEELSAINTTVSQDPETELYAVSSILDFNMTTNHSFMCLIKYGHLRVNQTFNWNTTKQEHFPDN | 101 pg/mL |
| R29D, Y31L, Q33H, K36G, M38I, T41A, M43R, M47T, N48D, F59L, E81V, L85R, K89N, A91T, F92P, K93V, R94L, I118V, T120S, I127T, T130A, H188D (protein) VIHVTKEVKEVATLSCGHNVSVEELAQTDILWHKEGKIVLAMRSGDTDIWPEYKNRTILDITNNLSIVILALRPSDEGTYVCVVRKYENDTPVLEHLAEVTLSVKADFPTPSISDFEVPSSNIRRITCSASGGFPEPHLSWLENGEELNAINTTVSQDPETELYAVSSKLDFNMTTNHSFMCLIKYGDLRVNQTFNWNTTKQEHFPDN | 230 pg/mL |
| R29D, Y31L, Q33H, K36G, M38I, T41A, M43R, M47T, L85R, K89N, A91T, F92P, K93V, R94L, I118V, T120S, I127T, T130A, K169E, H188D (protein) VIHVTKEVKEVATLSCGHNVSVEELAQTDILWHKEGKIVLAMRSGDTNIWPEYKNRTIFDITNNLSIVILALRPSDEGTYECVVRKYENDTPVLEHLAEVTLSVKADFPTPSISDFEVPSSNIRRITCSASGGFPEPHLSWLENGEELNAINTTVSQDPETELYAVSSELDFNMTTNHSFMCLIKYGDLRVNQTFNWNTTKQEHFPDN | 231 pg/mL |
| H18R, R29D, Y31L, Q33H, K36G, K37E, M38I, T41A, M43R, M47T, L70Q, E81V, L85R, K89N, A91T, F92P, K93V, R94L, I118V, T120S, T130A, K169E, H188D (protein) VIHVTKEVKEVATLSCGRNVSVEELAQTDILWHKEGEIVLAMRSGDTNIWPEYKNRTIFDITNNLSIVIQALRPSDEGTYVCVVRKYENDTPVLEHLAEVTLSVKADFPTPSISDFEVPSSNIRRIICSASGGFPEPHLSWLENGEELNAINTTVSQDPETELYAVSSELDFNMTTNHSFMCLIKYGDLRVNQTFNWNTTKQEHFPDN | 305 pg/mL |
| R29D, Y31L, Q33H, K36G, M38I, T41A, M43R, M47T, E81V, L85R, K89N, A91T, F92P, K93V, R94L, I118T, T130A, N149S (protein) VIHVTKEVKEVATLSCGHNVSVEELAQTDILWHKEGKIVLAMRSGDTNIWPEYKNRTIFDITNNLSIVILALRPSDEGTYVCVVRKYENDTPVLEHLAEVTLSVKADFPTPSISDFETPTSNIRRIICSASGGFPEPHLSWLENGEELSAINTTVSQDPETELYAVSSKLDFNMTTNHSFMCLIKYGHLRVNQTFNWNTTKQEHFPDN | 89 pg/mL |
| R29D, Y31L, Q33H, K36G, M38I, T41A, M43R, M47T, L70Q, E81V, L85R, K89N, A91T, F92P, K93V, R94L, T130A, H188D (protein) VIHVTKEVKEVATLSCGHNVSVEELAQTDILWHKEGKIVLAMRSGDTNIWPEYKNRTIFDITNNLSIVIQALRPSDEGTYVCVVRKYENDTPVLEHLAEVTLSVKADFPTPSISDFEIPTSNIRRIICSASGGFPEPHLSWLENGEELNAINTTVSQDPETELYAVSSKLDFNMTTNHSFMCLIKYGDLRVNQTFNWNTTKQEHFPDN | 213 pg/mL |
| R29D, Y31L, Q33H, K36G, M38I, T41A, M43R, M47T, E81V, L85R, K89N, A91T, F92P, K93V, R94L, F108L, I118V, T120S, T130A, K169E, H188D (protein) VIHVTKEVKEVATLSCGHNVSVEELAQTDILWHKEGKIVLAMRSGDTNIWPEYKNRTIFDITNNLSIVILALRPSDEGTYVCVVRKYENDTPVLEHLAEVTLSVKADLPTPSISDFEVPSSNIRRIICSASGGFPEPHLSWLENGEELNAINTTVSQDPETELYAVSSELDFNMTTNHSFMCLIKYGDLRVNQTFNWNTTKQEHFPDN | 165 pg/mL |
| R29D, I30V, Y31L, Q33H, K36G, M38I, T41A, M43R, M47T, E81V, L85R, K89N, A91T, F92P, K93V, R94L, I118V, T120S, I127T, T130A, H188D (protein) VIHVTKEVKEVATLSCGHNVSVEELAQTDVLWHKEGKIVLAMRSGDTNIWPEYKNRTIFDITNNLSIVILALRPSDEGTYVCVVRKYENDTPVLEHLAEVTLSVKADFPTPSISDFEVPSSNIRRITCSASGGFPEPHLSWLENGEELNAINTTVSQDPETELYAVSSKLDFNMTTNHSFMCLIKYGDLRVNQTFNWNTTKQEHFPDN | 127 pg/mL and 237 pg/mL |
| R29D, Y31L, Q33H, K36G, M38I, T41A, M43R, M47T, L70Q, E81V, K89N, A91T, F92P, K93V, R94L, I118V, T120S, I127T, T130A (protein) VIHVTKEVKEVATLSCGHNVSVEELAQTDILWHKEGKIVLAMRSGDTNIWPEYKNRTIFDITNNLSIVIQALRPSDEGTYVCVVLKYENDTPVLEHLAEVTLSVKADFPTPSISDFEVPSSNIRRITCSASGGFPEPHLSWLENGEELNAINTTVSQDPETELYAVSSKLDFNMTTNHSFMCLIKYGHLRVNQTFNWNTTKQEHFPDN | 226 pg/mL |
| R29D, Y31L, Q33H, K36G, M38I, T41A, M43R, M47T, E81V, L85R, K89N, A91T, F92P, K93V, R94F, T130A, N149S, K169I (protein) VIHVTKEVKEVATLSCGHNVSVEELAQTDILWHKEGKIVLAMRSGDTNIWPEYKNRTIFDITNNLSIVILALRPSDEGTYVCVVRKYENDTPVFEHLAEVTLSVKADFPTPSISDFEIPTSNIRRIICSASGGFPEPHLSWLENGEELSAINTTVSQDPETELYAVSSILDFNMTTNHSFMCLIKYGHLRVNQTFNWNTTKQEHFPDN | 114 pg/mL |
| R29D, Y31L, Q33H, K36G, M38I, T41A, M43R, M47T, L70Q, E81V, L85R, K89N, A91T, F92P, K93V, R94L, I118V, T120S, I127T, T130A, E143G, K169E, M174V, H188D (protein) VIHVTKEVKEVATLSCGHNVSVEELAQTDILWHKEGKIVLAMRSGDTNIWPEYKNRTIFDITNNLSIVIQALRPSDEGTYVCVVRKYENDTPVLEHLAEVTLSVKADFPTPSISDFEVPSSNIRRITCSASGGFPEPHLSWLGNGEELNAINTTVSQDPETELYAVSSELDFNVTTNHSFMCLIKYGDLRVNQTFNWNTTKQEHFPDN | 291 pg/mL |
| R29D, Y31L, Q33H, K36G, M38I, T41A, M43R, M47T, L70Q, E81V, L85R, K89N, A91T, F92P, K93V, R94L, I118V, T120S, I127T, T130A, K169E (protein) VIHVTKEVKEVATLSCGHNVSVEELAQTDILWHKEGKIVLAMRSGDTNIWPEYKNRTIFDITNNLSIVIQALRPSDEGTYVCVVRKYENDTPVLEHLAEVTLSVKADFPTPSISDFEVPSSNIRRITCSASGGFPEPHLSWLENGEELNAINTTVSQDPETELYAVSSELDFNMTTNHSFMCLIKYGHLRVNQTFNWNTTKQEHFPDN | 203 pg/mL |
